Molecular target: T1, mouse TIM-3 expressed on cells (mouse, UniProt Q8VIM0 20-281)
T1 construct: whole, on cells; also called mTIM-3
Test: flow cytometry on mouse primary glial cells (FIG. 7 legend)
Method: FACS analysis was performed to determine whether the selected antibody, hTIM-3_NCC1, specifically binds to mouse TIM-3 as well as human TIM-3.
Specifically, 0.5 μg of hTIM-3_NCC1 antibody was reacted to mouse primary glial cells for 30 minutes, and then stained with a secondary antibody (APC-human IgG Fc; Biolegend, cat #409305). In addition, mouse CD11b⁺ cells overexpressing mouse TIM-3 (3×10⁵ cells) were separated using a-BV421-conjugated anti-CD11b antibody (BD, cat #562605) and then 0.5 μg of hTIM-3_NCC1 antibody and PE-conjugated anti-mouse were reacted for 30 minutes. These cells were surface-stained with a secondary antibody (APC-Human IgG Fc) and then measured by flow cytometry.

T1 sequence (Q8VIM0 20-281): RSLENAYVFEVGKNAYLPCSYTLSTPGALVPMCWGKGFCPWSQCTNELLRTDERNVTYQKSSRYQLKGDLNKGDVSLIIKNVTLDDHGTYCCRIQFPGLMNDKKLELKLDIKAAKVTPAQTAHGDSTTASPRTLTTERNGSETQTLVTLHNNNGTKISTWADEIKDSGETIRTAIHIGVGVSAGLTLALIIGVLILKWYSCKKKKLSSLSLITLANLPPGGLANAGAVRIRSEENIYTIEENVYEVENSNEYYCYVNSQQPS

B1: hTIM-3_NCC1 (Fc fusion)
scFv: EVQLVESGGGLVQPGGSLRLSCAASGSIFSNGYMTWYRQAPGKGLELVSSINSRGVTNYADSVKGRFTISRDNSKNTLYLQMNSLRAEDTAVYYCAALLPHEIRKYWGQGTQVTVSSGGGSHGGGSGGGSVDDIQMTQSPDSLAVSLGERATINCKSSQSVFYNSNNKNYLGWYQKKPGQPPKLLIFWASTRESGVPDRFSGSGSGTDFTLTISSLQAEDVAVYYCQQYYSTPRTLGGGTKVDIKR
notes: Human scFv from a naive phage library, tested as scFv-hIgG (hIgG1) and detected with anti-human IgG secondary antibodies; also called scFv-TIM3 #4; ScFV-TIM3 #4; not shown: human IgG1 part (named only as 'hscFv-hIgG1')
Does B1 bind?
Result: binds

From patent US20230087570A1 (NATIONAL CANCER CENTER, published 2023)
